Experimental findings from IntAct's records for PubMed 27852061 are described below.

B1: Forkhead box protein E1 (Homo sapiens), O00358 (parent)
chain: MTAESGPPPPQPEVLATVKEERGETAAGAGVPGEATGRGAGGRRRKRPLQRGKPPYSYIALIAMAIAHAPERRLTLGGIYKFITERFPFYRDNPKKWQNSIRHNLTLNDCFLKIPREAGRPGKGNYWALDPNAEDMFESGSFLRRRKRFKRSDLSTYPAYMHDAAAAAAAAAAAAAAAAIFPGAVPAARPPYPGAVYAGYAPPSLAAPPPVYYPAASPGPCRVFGLVPERPLSPELGPAPSGPGGSCAFASAGAPATTTGYQPAGCTGARPANPSAYAAAYAGPDGAYPQGAGSAIFAAAGRLAGPASPPAGGSSGGVETTVDFYGRTSPGQFGALGACYNPGGQLGGASAGAYHARHAAAYPGGIDRFVSAM
partner: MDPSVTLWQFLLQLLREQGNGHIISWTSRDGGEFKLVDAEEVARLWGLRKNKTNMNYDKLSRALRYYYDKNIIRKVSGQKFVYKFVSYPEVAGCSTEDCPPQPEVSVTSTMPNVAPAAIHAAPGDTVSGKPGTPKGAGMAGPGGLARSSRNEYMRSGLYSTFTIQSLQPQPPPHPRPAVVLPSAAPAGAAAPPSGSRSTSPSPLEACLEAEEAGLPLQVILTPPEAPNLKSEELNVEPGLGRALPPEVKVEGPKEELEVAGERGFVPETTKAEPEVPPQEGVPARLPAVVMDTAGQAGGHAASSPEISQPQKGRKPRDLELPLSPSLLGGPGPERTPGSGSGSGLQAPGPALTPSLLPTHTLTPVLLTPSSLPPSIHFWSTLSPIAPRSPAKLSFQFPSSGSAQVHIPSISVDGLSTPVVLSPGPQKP

Variants of B1 are the subject of this assay. The settings on record: with elk1_human ELK1, P19419.
In the case of MTAESGPPPPQPEVLATVKEERGETAAGAGVPGEATGRGAGGRRRKRPLQRGKPPYSYIALIAMVIAHAPERRLTLGGIYKFITERFPFYRDNPKKWQNSIRHNLTLNDCFLKIPREAGRPGKGNYWALDPNAEDMFESGSFLRRRKRFKRSDLSTYPAYMHDAAAAAAAAAAAAAAAAIFPGAVPAARPPYPGAVYAGYAPPSLAAPPPVYYPAASPGPCRVFGLVPERPLSPELGPAPSGPGGSCAFASAGAPATTTGYQPAGCTGARPANPSAYAAAYAGPDGAYPQGAGSAIFAAAGRLAGPASPPAGGSSGGVETTVDFYGRTSPGQFGALGACYNPGGQLGGASAGAYHARHAAAYPGGIDRFVSAM [A65V], the “effect of a mutation on the interaction” value was “with no effect”.
